Molecular target: T1, Zea mays ZMET2 (residues 130-912), core fragment harboring the CD, BAH and MTase domains (Zea mays, UniProt Q9AXT8 130-912, in the crystallised complex C517 is covalently linked to the target 5-fluorocytosine (fC10) of the hmCAG DNA)
T1 construct: ZMET2, chromomethylase, CMT3 ortholog of Zea mays, residues 130-912; in the enzymatic assays and the EMSA the free protein was used; also called WT ZMET2; source: E. coli BL21 DE3 (RIL), purified (Ni-NTA, Heparin HP, Superdex 200); not shown: His6-SUMO, N-terminal, cleaved
T1 sequence (looked up): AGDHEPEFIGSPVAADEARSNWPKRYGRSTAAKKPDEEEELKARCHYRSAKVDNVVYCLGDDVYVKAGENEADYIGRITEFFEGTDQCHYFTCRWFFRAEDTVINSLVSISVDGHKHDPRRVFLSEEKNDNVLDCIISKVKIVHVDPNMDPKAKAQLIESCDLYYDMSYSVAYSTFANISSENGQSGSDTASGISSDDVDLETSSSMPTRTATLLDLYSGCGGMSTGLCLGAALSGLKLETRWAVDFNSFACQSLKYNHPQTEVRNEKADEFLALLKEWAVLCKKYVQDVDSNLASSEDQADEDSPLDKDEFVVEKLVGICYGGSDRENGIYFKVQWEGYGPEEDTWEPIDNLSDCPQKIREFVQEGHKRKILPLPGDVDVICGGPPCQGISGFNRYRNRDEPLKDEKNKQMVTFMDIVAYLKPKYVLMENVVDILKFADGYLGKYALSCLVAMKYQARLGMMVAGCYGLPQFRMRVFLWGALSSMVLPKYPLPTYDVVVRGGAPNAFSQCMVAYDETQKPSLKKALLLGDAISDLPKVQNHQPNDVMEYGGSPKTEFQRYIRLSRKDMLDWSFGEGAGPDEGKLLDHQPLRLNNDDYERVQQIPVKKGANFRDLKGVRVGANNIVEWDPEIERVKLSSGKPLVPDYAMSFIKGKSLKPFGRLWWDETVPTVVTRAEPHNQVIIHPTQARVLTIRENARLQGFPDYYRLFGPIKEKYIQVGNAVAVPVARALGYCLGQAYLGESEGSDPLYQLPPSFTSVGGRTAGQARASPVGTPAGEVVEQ
Assay: crystal structure; covalent ZMET2-hmCAG DNA complex with the H3_(1–32)Kc9me2 peptide and SAH; sitting drop at 4 °C, 0.1 M sodium citrate pH 5.5, 15% w/v polyethylene glycol 6000
Settings: both partners purified

- stoichiometry N: 2 peptides per ZMET2 complex
B1: histone H3 peptide residues 1-32 harboring the Kc9me2 modification (methyl-lysine analog of H3K9me2) (peptide)
peptide: not shown
modifications: Kc9me2: cysteine 9 (K9C) alkylated with (2-chloroethyl)-dimethylammonium chloride to the methyl-lysine analog of dimethyl-lysine
notes: Histone H3 residues 1-32; The removal of the His6-SUMO tag is told only through 'initial purification as described above'; also called H3_(1–32)Kc9me2; H3Kc9me2; source: E. coli BL21 DE3 (RIL), purified (HiTrap SP HP), alkylated, purified again (HiTrap SP HP); not shown: His6-SUMO, N-terminal, cleaved

Reference: PMC9256654, “Mechanistic basis for maintenance of CHG DNA methylation in plants” (Nature Communications, 2022)
